According to US7732563B2, “Cloning, sequencing and expression of a gene encoding an eukaryotic amino acid racemase, and diagnostic, therapeutic, and vaccination applications of parasite and viral mitogens” (priority 1999, dated 2010):

Tests used:
[1] = test system: total spleen cells; experiment: In vitro proliferation assay of splenocytes (3H-thymidine uptake); assay type: cell-based, mouse
Procedure: Briefly, freshly recovered splenocytes from 8 week old male Balb/c mice seeded at a concentration of 5×10^4 cells/well were incubated for 24, 48 and 72 h in 5% FCS RPMI-1640 medium. A 16 h ^3H-thymidine pulse at 1 μCi/well was performed before harvesting. ^3H-Thymidine uptake was determined in a beta-plate liquid scintillation counter (LKB-Wallac). All points were done in triplicate and the corresponding standard deviation calculated. For comparison, ^3H-thymidine uptake after 48 h in the presence of ConA (10 μg/ml) and LPS (5 μg/ml) was 32000 c.p.m. and 3500 c.p.m., respectively. T-cell depletion was performed by incubating freshly recovered spleen cells for 30 min at 37° C. in the presence of anti-Thy 1.2 monoclonal antibody (Cedarlane) and rabbit complement (Cedarlane). In order to rule out a possible mitogenic effect due to LPS contamination in samples, proliferation assays were also performed on freshly recovered splenocytes from the LPS non-responder mouse strain C3H/Hej. Same levels of proliferation were verified. Balb/c mice were purchased from Charles River, France. C3H/Hej mice were maintained in our animal facilities.
In vitro proliferation is accomplished using freshly recovered splenocytes from BALB/c mice seeded at a density of 5×10^4 cells/well and incubated for 24, 48 and 72 h with increasing concentrations of total parasite supernatants or recombinant TcPa45 protein or other mitogen (0.07-200 μg/ml) with 0.5 μg/ml of the HPLC fractions, or with the conventionally used mitogens concanavalin A (10 μg/ml) and lipopolysaccharide (5 μg/ml) in 5% FCS in RPMI-1640 complete medium. T-cell depletion is accomplished by incubating freshly recovered spleen cells for 30 min. at 37° C. in the presence of monoclonal antibodies against Thy 1.2 and rabbit complement (Cedarlane, Le Perray en Yvelines, France). Analysis of proliferative activity of total splenocytes (5×10^4 cells/well) in the presence of 50 μg/ml enzymatically active rTcPA45 or other mitogen is also compared with the proliferation obtained using the same amounts of rTcPA45 protein or other mitogen lacking racemase activity (by heating for 10 min. at […] or by long term storage at 4° C.). Inhibition of proliferation is obtained by adding to the splenocyte cultures 50 μg/ml rTcPA45 or other mitogen pre-incubated for 10 min. at 37° C. with 1 mM inhibitor, either specific (pyrrole-2-carboxylic acid) or nonspecific (iodoacetamide or iodoacetate). Competitive assays of proliferative activity by 50 μg/ml rtcPA45 or other mitogen are done by adding increasing concentrations of specific substrates i.e., proline racemase substrates (L- or D-proline) for the mitogen rTcPA45 ranging from 3 mM to 50 mM. Controls include the incubation of splenocytes (5×10^4 cells/well) with substrate alone, i.e., 50 mM L- or D-proline in RPMI medium alone for prline racemase. Cultures are collected after a 16-hour pulse or 1 μCi/well ^3H-thymidine uptake was determined in a beta-plate liquid scintillation counter (LKB-Wallac, Orsay, France). All data points are obtained in triplicate and the corresponding standard deviation is calculated.
5×10^5 naive spleen cells/well (96 well plate) were stimulated in vitro with different doses of rTcPA45 (ranging in FIG. 4b from 0.8 to 200 μg/ml final) for 24, 48 and 72 h, at 37° C., 5% CO2. Cultures were pulsed with ^3H-Thymidine (1 μCi/well) for 16-18 h before harvesting. ^3H-thymidine incorporation was obtained after counting using a beta-plate. Results present arithmetic means of c.p.m. (counts/minute) from 6 wells/dose of rTcPA45 or wells containing medium alone (+/−SD of the means). (FIG. 4b)

[2] = test system: spleen cells / Ig-producing B cells; experiment: Mitogenicity of rTcPA45 in vivo assessed by ELISPOT; parameters: species or system mouse
Procedure: BALB/c mice were injected or not with 50 μg of rTcPA45 (i.p.), and spleen cells assayed day 7 after injection. Results represent total numbers of spleen cells, total number of B cells producing IgM, IgG2a, or IgG2b isotypes, and total numbers of isotype-producing B cells specific of the protein.
Mice were injected or not with 50 μg of iTcPA45 (i.p.). […] Numbers of Ig-secreting cells (total or specific to rTcPA45) were determined by Elispot assay, as follows:
Flat bottomed 96 well ELISA plates, were coated with either goat anti-mouse Ig or with rTcPA45 and incubated at 4° C. overnight. Plates were blocked with PBS-gelatin, washed with PBS-Tween and with RPMI medium. 100 μl of different spleen cell concentrations per well (in RPMI containing 2% FCS) were incubated for 8 hours at 37° C., 5% CO2. A row in the plate containing serial dilutions of purified immunoglobulin (IgM, IgG2a, or IgG2b) was used as standard. After lysis of the cells with H20-Tween, plates were then washed with PBS-Tween and incubated with respective biotin-labeled antibodies directed to (IgM, IgG2b, or IgG2a isotypes), overnight at 4EC. After washing, plates were incubated for 45-60 minutes with avidin-alkaline phosphatase and further incubated with substrate (2-amino-2-methyl-propanol buffer containing BCIP) 2-4 hours, 37° C. (until the spots are “dark” blue). Spots correspond to immunoglobulin-producing B-cell (of a particular isotype) directed to the coated antigen (here: goat anti-mouse immunoglobulins or rTcPA45). Spots are then counted and numbers corrected to total number of spleen cells according to the dilution. (See Table I and FIG. 7.)

[3] = spleen lymphocytes, up to 72 h culture
[4] = BALB/c mice, 50 μg/mouse i.p., 7 days after injection

B1: rTcPA45: recombinant T. cruzi polyclonal activator 45, B-cell mitogen and proline racemase, codons 30-423 with C-terminal 6×His tag, from E. coli (protein)
chain: RTGQEKLLFDQKYKIIKGEKKEKKKNQRANRREHQQKREIMRFKKSFTCIDMHTEGEAARIVTSGLPHIPGSNMAEKKAYLQENMDYLRRGIMLEPRGHDDMFGAFLFDPIEEGADLGMVFMDTGGYLNMCGHNSIAAVTAAVETGIVSVPAKATNVPVVLDTPAGLVRGTAHLQSGTESEVSNASIINVPSFLYQQDVVVVLPKPYGEVRVDIAFGGNFFAIVPAEQLGIDISVQNLSRLQEAGELLRTEINRSVKVQHPQLPHINTVDCVEIYGPPTNPEANYKNVVIFGNRQADRSPCGTGTSAKMATLYAKGQLRIGETFVYESILGSLFQGRVLGEERIPGVKVPVTKDAEEGMLVVTAEITGKAFIMGFNTMLFDPTDPFKNGFTLKQ
modifications: left off: small tags and cut ends
mitogenic activity of inactivated rTcPA45 ([1]; inactivated by being heated or by long storage at 4° C.): abolished | concentration at which proliferation peaks (bell-shaped dose-response curve) [1, 3]: 50 µg/mL | concentration from which proliferation starts (bell-shaped dose-response curve) [1, 3]: 0.8 µg/mL | Ig-secreting B cells directed to TcPA45 ([2]; 50 μg rTcPA45 i.p., day 7): complete lack | IgM secreting cells directed to the injected protein ([2]; 50 μg rTcPA45 i.p., day 7): less than 0.5% | increase in total numbers of Ig-secreting B cells (IgM, IgG2a, IgG2b isotypes) ([2]; 50 μg rTcPA45 i.p., day 7): 3-6 fold | increase in total spleen cell numbers ([2]; 50 μg rTcPA45 i.p., day 7): 2 fold | increase in spleen cell numbers ([2]; 50 μg rTcPA45 in vivo, by day 4): 2 fold | rTcPA45-specific Ig-secreting B cells ([2]; 50 μg rTcPA45 in vivo, day 4): complete lack | Total Number of Ig-producing B cells ANTI-rTc45MIT: IgG2a-B cells anti 45 [2, 4]: none | Total Number of Ig-producing B cells ANTI-rTc45MIT: IgG2b-B cells anti 45 [2, 4]: none | Total Number of Ig-producing B cells ANTI-rTc45MIT: IgM-B cells anti 45 [2, 4]: 84 | Total Number of Ig-producing B cells: IgG2a-producing cells [2, 4]: 9866 ± 3000 | Total Number of Ig-producing B cells: IgG2b-producing cells [2, 4]: 14633 ± 3287 | Total Number of Ig-producing B cells: IgM-producing cells [2, 4]: 371666 ± 94495
